Substitutions are numbered along the chain they refer to. One block for each molecule: values may come before it.
How the values were obtained:
[1] = molecular target: hIL-6R on hIL-6-responsive human cells (XG-1 myeloma line, HepG2 hepatoma line) (human) (UniProt P08887); test: cell-based or functional assay
[2] = molecular target: recombinant hIL-6R protein, monomeric form (human) (UniProt P08887); test: SPR (BIAcore), captured antibody, monomeric hIL-6R
[3] = molecular target: recombinant hIL-6R protein, monomeric form (human) (UniProt P08887); test: Kinexa solution-phase competition immunoassay, monomeric hIL-6R
[4] = molecular target: Recombinant monkey monomeric IL-6R protein (Macaca fascicularis, extracellular domain) (Macaca fascicularis); test: SPR (BIAcore), captured antibody, monomeric IL-6R 1.25-40 nM injected
[5] = molecular target: recombinant hIL-6R protein, monomeric form (human) (UniProt P08887); test: as above
[6] = molecular target: hIL-6R-hFc (human) (UniProt P08887); test: blocking ELISA: 100 pM hIL-6R-hFc premixed with varied antibody, free hIL-6R-hFc captured on hIL-6-coated plate
[7] = molecular target: T1, recombinant hIL-6R protein, monomeric form (human, UniProt P08887 20-358); test: SPR (BIAcore), captured antibody, monomeric hIL-6R
T1 construct: also called monomeric hIL-6R; Human IL6R
T1 sequence: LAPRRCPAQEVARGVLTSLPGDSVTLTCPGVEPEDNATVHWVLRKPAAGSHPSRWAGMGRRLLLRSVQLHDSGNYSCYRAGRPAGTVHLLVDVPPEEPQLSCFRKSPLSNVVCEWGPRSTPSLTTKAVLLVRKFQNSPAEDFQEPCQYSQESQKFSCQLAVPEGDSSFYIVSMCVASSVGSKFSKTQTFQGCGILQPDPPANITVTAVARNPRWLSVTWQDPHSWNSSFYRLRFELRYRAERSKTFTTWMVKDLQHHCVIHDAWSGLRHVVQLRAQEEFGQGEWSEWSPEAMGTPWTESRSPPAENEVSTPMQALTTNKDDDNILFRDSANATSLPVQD

[8] = molecular target: T2, hIL-6R-hFc (human, UniProt P08887 20-358); test: competition ELISA: antibody premixed with serial dilutions of hIL-6R-hFc, free antibody detected on hIL-6R-hFc-coated plate
T2 construct: also called dimeric hIL-6R; Dimer; not shown: human Fc (hFc)
T2 sequence: T1 sequence

[9] = molecular target: T3, hIL-6R on hIL-6-responsive human cells (XG-1 myeloma line, HepG2 hepatoma line) (human, UniProt P08887 20-468); test: cell-based or functional assay
T3 sequence (looked up): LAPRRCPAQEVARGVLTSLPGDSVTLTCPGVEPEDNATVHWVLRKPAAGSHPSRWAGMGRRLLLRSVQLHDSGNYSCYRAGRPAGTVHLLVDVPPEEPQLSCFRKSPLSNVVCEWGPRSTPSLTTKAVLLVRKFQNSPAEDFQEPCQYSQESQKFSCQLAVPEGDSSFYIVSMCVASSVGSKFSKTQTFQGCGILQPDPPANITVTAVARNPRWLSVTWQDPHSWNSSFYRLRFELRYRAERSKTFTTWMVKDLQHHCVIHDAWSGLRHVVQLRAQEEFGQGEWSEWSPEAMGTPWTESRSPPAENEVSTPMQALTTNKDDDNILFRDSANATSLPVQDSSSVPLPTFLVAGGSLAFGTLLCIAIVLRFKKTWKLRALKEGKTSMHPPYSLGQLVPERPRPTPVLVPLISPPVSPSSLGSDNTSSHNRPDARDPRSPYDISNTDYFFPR

[10] = molecular target: T1, recombinant hIL-6R protein, monomeric …; test: Kinexa solution-phase competition immunoassay, monomeric hIL-6R
[11] = molecular target: T4, hIL-6R recombinant protein (plate-coated, Example 5) (human, UniProt P08887 20-358, limits assumed); test: SPR (BIAcore) competition on hIL-6R; competitor: control antibody
T4 construct: also called antigen
T4 sequence: T1 sequence

[12] = molecular target: T2, hIL-6R-hFc; test: SPR (BIAcore), antibody captured on anti-mouse IgG surface, dimeric hIL-6R
[13] = molecular target: T1, recombinant hIL-6R protein, monomeric …; test: SPR (BIAcore), antibody captured on anti-mouse IgG surface, monomeric hIL-6R
[14] = molecular target: T2, hIL-6R-hFc; test: SPR (BIAcore): hIL-6R-hFc captured, antibody injected, then 50 nM hIL-6; percent reduction in hIL-6 binding
[15] = molecular target: T2, hIL-6R-hFc; test: blocking ELISA: 100 pM hIL-6R-hFc premixed with varied antibody, free hIL-6R-hFc captured on hIL-6-coated plate
[16] = molecular target: T4, hIL-6R recombinant protein …; test: competition ELISA on hIL-6R-coated plate presaturated with competitor control antibody; test antibody 50 ng/ml
[17] = molecular target: T3, hIL-6R on hIL-6-responsive human cells …; test: cell-based or functional assay; remark: listed apart in the source
[18] = molecular target: T1, recombinant hIL-6R protein, monomeric …; test: SPR (BIAcore), captured mouse-IgG antibody, monomeric hIL-6R 1.56-12.5 nM
[19] = molecular target: T1, recombinant hIL-6R protein, monomeric …; test: SPR (BIAcore), captured mouse-IgG antibody, monomeric hIL-6R 1.56-12.5 nM; mIgG2a isotype
[20] = molecular target: T1, recombinant hIL-6R protein, monomeric …; test: SPR (BIAcore), antibody captured on goat anti-mouse Fc, monomeric IL-6R 1.25-40 nM injected
[21] = molecular target: T5, Recombinant monkey monomeric IL-6R protein (Macaca fascicularis, extracellular domain) (Macaca fascicularis, UniProt P08887 21-330 (human entry)); test: as above
T5 construct: also called Monkey IL6R; monkey IL-6R
T5 chain: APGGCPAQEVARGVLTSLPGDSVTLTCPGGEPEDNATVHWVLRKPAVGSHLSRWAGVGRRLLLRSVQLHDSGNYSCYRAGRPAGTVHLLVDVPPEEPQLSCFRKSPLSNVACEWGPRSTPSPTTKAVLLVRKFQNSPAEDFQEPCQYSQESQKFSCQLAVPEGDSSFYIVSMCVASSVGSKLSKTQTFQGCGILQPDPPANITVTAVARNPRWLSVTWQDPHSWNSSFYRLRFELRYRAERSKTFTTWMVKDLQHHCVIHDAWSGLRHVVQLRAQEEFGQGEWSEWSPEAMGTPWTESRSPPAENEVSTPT

[22] = molecular target: T5, Recombinant monkey monomeric IL-6R …; test: SPR (BIAcore); reference: binding to human IL-6R; end of range tied to this antibody by Table 4 (0.143 against 0.051 nM)
[23] = molecular target: T1, recombinant hIL-6R protein, monomeric …; test: SPR (BIAcore), antibody captured on goat anti-human Fc, monomeric hIL-6R 1.56-12.5 nM
[24] = molecular target: T1, recombinant hIL-6R protein, monomeric …; test: SPR (BIAcore), antibody captured on goat anti-human Fc, monomeric hIL-6R 1.56-12.5 nM; modhIgG4 isotype
[25] = molecular target: T5, Recombinant monkey monomeric IL-6R …; test: SPR (BIAcore); reference: binding to human IL-6R; end of range tied to this antibody by Table 4 (0.569 against 0.377 nM)

Molecule: humanized monoclonal antibody to human IL-6R (U.S. Patent No. 5,817,790 SEQ ID NO:69 and 71)
HepG2/Stat3 Luciferase activity IC50 [1]: 0.854 nM
XG-1 cell proliferation Inhibition IC50 [1]: 1.5 nM
Kd [2]: 1.79 nM
Kd [3]: 1.96 nM
Kd [4]: 1.17 nM
Kd [5]: 0.963 nM
IC50 [6]: 2.2 nM

B1: 248982-13-2-A9 (antibody, V domains shown)
VH: QVQLVQSGGGLVQPGRSLRLSCAASGFTFDDYAMHWVRQAPGKGLEWVSGISWNSGRVGYADSVKGRFTISRDNAKNSLYLQMNSLRAEDTALYYCTKGRDAFDIWGQGTMVTVSS
VL: DIVMTQSPSSVSASVGDRVTITCRASQGISSWLAWYQQKPGKAPKLLIYAASSLQSGVPSRFSGSGSGTDFTLTISSLQPEDFATYYCQQANSFPYTFGQGTKLEIK
Kd [7]: 2.87 nM
IC50 [8]: 0.054 nM

B2: VV6C10-1 (antibody, V domains shown)
VH: B1 VH with Q1E, Q6E, M34L, I51V, S55G, V58I, Y80F, A88V, T97A, M111L
VL: EIVLTQSPATLSLSPGERATLSCRASQSVSSYLAWYQQKPGQAPRLLIYDASNRATGIPARFSGSGSGTDFTLTISSLEPEDFAFYYCQQRNNRPPFTFGPGTKVDVR
notes: Human variable regions with mouse constant region
XG-1 cell proliferation Inhibition IC50 [9]: > 6.9 nM
Kd [10]: 2.05 nM
% reduction of binding by control antibody [11]: 90%
Kd [12]: 0.032 nM
Kd [13]: 0.267 nM
hIL6/hIL6R Binding Inhibition (%) [14]: 61%
IC50 [15]: 4.6 nM
% reduction of binding by control antibody [16]: 80%
IC50 [8]: 0.01 nM

B3: VQ8F11-21 (antibody, V domains shown)
VH: B1 VH with Q1E, Q6E, G26R, V58I, K76E, Y80F, S85G, T97A, A102S
VL: B1 VL with V3Q, A50G, Q55E, T85S
notes: Human variable regions with mouse constant region; also called VQ8F11-21 mIgG2a
HepG2/Stat3 Luciferase activity IC50 [9]: 0.135 nM
XG-1 cell proliferation Inhibition IC50 [9]: 0.62 nM
HepG2/STAT3 luciferase assay IC50 [17]: 0.135 nM
Kd [10]: 0.009 nM
% reduction of binding by control antibody [11]: 96%
koff [18]: 5.27e-05 s⁻¹
kon [18]: 786000 M⁻¹ s⁻¹
Kd [12]: 0.023 nM
Kd [13]: 0.067 nM
Kd [19]: 0.067 nM
Kd [20]: 0.051 nM
koff [20]: 4.38e-05 s⁻¹
kon [20]: 851000 M⁻¹ s⁻¹
Kd [21]: 0.143 nM
koff [21]: 4.86e-05 s⁻¹
kon [21]: 339000 M⁻¹ s⁻¹
hIL6/hIL6R Binding Inhibition (%) [14]: 98%
IC50 [15]: 0.12 nM
% reduction of binding by control antibody [16]: 79%
fold difference of KD, monkey against human receptor [22]: 3 fold
IC50 [8]: 0.008 nM

B5: VQ8F11-21 modhIgG4 (antibody, V domains shown)
VH: B1 VH with Q1E, Q6E, G26R, V58I, K76E, Y80F, S85G, T97A, A102S
VL: B1 VL with V3Q, A50G, Q55E, T85S
notes: Modified human IgG4 constant region; also called VQ8F11-21 modified human IgG4
HepG2/STAT3 luciferase assay IC50 [17]: 0.249 nM
Kd [23]: 0.053 nM
kon [23]: 881000 M⁻¹ s⁻¹
koff [24]: 4.7e-05 s⁻¹

Now from value to molecule:

HepG2/Stat3 Luciferase activity IC50 [9]: 0.188 nM
XG-1 cell proliferation Inhibition IC50 [9]: 1.1 nM
HepG2/STAT3 luciferase assay IC50 [17]: 0.188 nM
Kd [10]: 0.032 nM
% reduction of binding by control antibody [11]: 96%
Kd [18]: 0.097 nM
koff [18]: 7.52e-05 s⁻¹
kon [18]: 772000 M⁻¹ s⁻¹
Kd [12]: 0.146 nM
Kd [13]: 0.097 nM
Kd [20]: 0.162 nM
koff [20]: 8.41e-05 s⁻¹
kon [20]: 518000 M⁻¹ s⁻¹
Kd [21]: 0.154 nM
koff [21]: 7.7e-05 s⁻¹
kon [21]: 500000 M⁻¹ s⁻¹
hIL6/hIL6R Binding Inhibition (%) [14]: 100%
IC50 [15]: 0.35 nM
% reduction of binding by control antibody [16]: 84%
IC50 [8]: 0.005 nM
B4: VV6A9-5 (antibody, V domains shown)
VH: B1 VH with Q1E, Q6E, M34L, I51V, S55G, V58I, Y80F, A88V, T97A, M111L
VL: B1 VL with V3Q, Q90H, N92Y
notes: Human variable regions with mouse constant region; also called VV6A9-5 mIgG2a

HepG2/Stat3 Luciferase activity IC50 [9]: 0.097 nM
XG-1 cell proliferation Inhibition IC50 [9]: 0.4 nM
HepG2/STAT3 luciferase assay IC50 [17]: 0.097 nM
Kd [10]: 0.12 nM
% reduction of binding by control antibody [11]: 26%
Kd [18]: 0.222 nM
koff [18]: 0.000221 s⁻¹
kon [18]: 995000 M⁻¹ s⁻¹
Kd [12]: 0.101 nM
Kd [13]: 0.222 nM
Kd [20]: 0.377 nM
koff [20]: 0.000276 s⁻¹
kon [20]: 732000 M⁻¹ s⁻¹
Kd [21]: 0.569 nM
koff [21]: 0.000416 s⁻¹
kon [21]: 731000 M⁻¹ s⁻¹
hIL6/hIL6R Binding Inhibition (%) [14]: 68%
IC50 [15]: 0.39 nM
% reduction of binding by control antibody [16]: 3%
fold difference of KD, monkey against human receptor [25]: 1.5 fold
IC50 [8]: 0.004 nM
B6: VQ8A9-6 (antibody, V domains shown)
VH: EVQLVESGGNLVQPGRSLRLSCAASGFIFDDYAMHWVRQAPGKGLEWVSGISWNSGSIGYADSVKGRFTISRDNAKNSLYLQMNSLRAEDTALYYCAKDGGSSWLPFVYYYGMDVWGQGTTVTVSS
VL: EIVMTQSPATLSVSPGERATLSCRASQSISSNFAWYQQKPGQAPRLLIYGASTRATGIPARFSGSGSGTDFTLTISSLQSEDFAVYYCQQYSSWPPYTFGQGTKLEIK
notes: Human variable regions with mouse constant region (hybridoma-derived chimeric antibody); also called VQ8A9-6 mIgG1

Source: patent US20070280945A1 (Regeneron, published 2007)
